Positions count from the first letter of the chain named.

B1: VHH 2F04 (VHH)
VHH: EVQLVESGGGLVQAGGSLRLSCAASGFAFDDHLIGWFRQAPGKEREAVSCISRSAGSTYYADSVKGRFTISSDNAKNTVYLQMNSLKADDTAVYYCAAGPAWGRPASPLPYEYDYWGQGTQVTVSS
notes: also called 002F04; not shown: C-terminal c-myc tag and His6 tag
B2: VHH 3A07 (VHH)
VHH: EVQLVESGGGLVQPGGSLRLSCAASGFTLDYDAIGWFRQAPGKEREGVSCITSSDGITYYADSVKGRFTISRDNAKNTVYLQMNSLKPEDTAVYYCATGNRRIYYSDYALACFPYEYDYWGQGTQVTVSS
notes: also called 003A07; not shown: C-terminal c-myc tag and His6 tag
B3: VHH 16G09 (VHH)
VHH: EVQLVESGGGLVQAGGSLRLVCSASGIDFSINAMAWYRQAPGKQREWVAFMINDSSTDYTDSVKGRFTISRDSTKNILYLQMNNLNVEDTAVYYCNTAYEQHTYWGQGTQVTVSS
notes: also called 016G09; not shown: C-terminal c-myc tag and His6 tag
B4: VHH 6H05 (VHH)
VHH: EVQLVESGGGLVQAGGSLRLSCAASGFTFDDYAIGWFRQAPGKEREGVSCISSSDGSTAYADSVKGRFTISSDNAKNTVYLQMNSLKPEDTAVYYCTAVPATRRTPQMVAANVCWLAEYEYDYWGQGTQVTVSS
notes: also called 006H05; not shown: C-terminal c-myc tag and His6 tag
B5: VHH 3F02 (VHH)
VHH: EVQLVESGGGLVQVGDSLRLACAASGRTFSTYLMVGWFRQAPGKEREFAAGIWSSGDTAYADSVKGRFTISRDNAKNTVYLQMNSLKTEDTAVYYCAGSYDGNYYIPGFYKDWGQGTQVTVSS
notes: also called 003F02; not shown: C-terminal c-myc tag and His6 tag
B6: VHH 10C06 (VHH)
VHH: EVQLVESGGGLVQAGGSLRLSCVASGFTFDDYAIGWFRQAPGKEREGVSCISSSDGSTYYADSVKGRFTISGDNAKNTVYLQMNSLKPEDTAVYYCAAGITPCSDYTQTYEYDVWGQGTQVTVSS
notes: also called 010C06; not shown: C-terminal c-myc tag and His6 tag
B7: VHH 12B03 (VHH)
VHH: EVQLVESGGGLVQSGGSLRLSCAASGFALDYYTIGWFRQAPGKEREGVSCISGGDTSTYYADSVKGRFTISRDNAKNTVYLQMNSLKPEDTAVYYCATDSAGVPAGPAAVYGSTCSRLEYDYWGQGAQVTVSS
notes: also called 012B03; not shown: C-terminal c-myc tag and His6 tag
B8: VHH 14H02 (VHH)
VHH: EVQLVESGGGLVQAGGSLRLSCAASGFTFDEYAIGWFRQAPGKEREGVSYISSSDGSTYYADSVKGRVTSSSDNAKNTVYLQMNSLKPEDTAVYYCAARPTLRVRLDNDRHHLLYEYEYDYWGQGTQVTVSS
notes: also called 014H02; not shown: C-terminal c-myc tag and His6 tag
B9: VHH 55D06 (VHH)
VHH: EVQLVESGGGLVQAGGSLRLSCAASGLTLDDYAIGWFRQAPGKEREGVSSIRDNDGSTYYADSVKGRFTISSDNDKNTVYLQMNSLKPEDTAVYYCAAVPAGRLRFGEQWYPIYEYDAWGQGTLVTVSS
notes: periplasmic extract; not shown: C-terminal c-myc tag and His6 tag
B10: VHH 53A06 (VHH)
VHH: B9 VHH with G10S
notes: as for B9
B11: VHH 65F03 (VHH)
VHH: B9 VHH with L4M, S85G
notes: as for B9
B12: VHH 64C07 (VHH)
VHH: B9 VHH with Q3H, K43V
notes: as for B9
B13: VHH 55A06 (VHH)
VHH: B9 VHH with V5M, L27I, Y80N
notes: as for B9
B14: VHH 64F03 (VHH)
VHH: B9 VHH with A24V, L27I, I34V, S50T, E89K
notes: as for B9
B15: VHH 64B02 (VHH)
VHH: B9 VHH with S17F, S21T, A24V, L27F, D75V
notes: as for B9
B16: VHH 58D10 (VHH)
VHH: B9 VHH with V2E, Q3L, L11S, R19K
notes: as for B9
B17: VHH 64G12 (VHH)
VHH: B9 VHH with A24V, L27F, D53E, K65Q, Q82R
notes: as for B9
B18: VHH 64B01 (VHH)
VHH: B9 VHH with S17T, A24V, L27F, T123I
notes: as for B9
B19: VHH 64E12 (VHH)
VHH: B9 VHH with A24V, L27F, F68S
notes: as for B9
B20: VHH 56A07 (VHH)
VHH: B9 VHH with L27F, F68S, D75A, K76R, Y80F
notes: as for B9
B21: VHH 64G02 (VHH)
VHH: B9 VHH with A24I, L27F, D30V, T69I
notes: as for B9
B22: VHH 64G03 (VHH)
VHH: B9 VHH with L27F, F68S, N84D, F106Y
notes: as for B9
B23: VHH 65F01 (VHH)
VHH: B9 VHH with T58R
notes: as for B9
B24: VHH 64D11 (VHH)
VHH: B9 VHH with L11Q, V12A, A24V, L27F, A61T
notes: as for B9
B25: VHH 55F02 (VHH)
VHH: B9 VHH with A14S
notes: as for B9
B26: VHH 55G03 (VHH)
VHH: B9 VHH with G10S
notes: as for B9
B27: VHH 64C03 (VHH)
VHH: B9 VHH with L27F, F106Y
notes: as for B9
B28: VHH 64A03 (VHH)
VHH: B9 VHH with V5L, L27F, F106I
notes: as for B9
B29: VHH 64G01 (VHH)
VHH: B9 VHH with L27F, T69I, S85N, F106Y
notes: as for B9
B30: VHH 60C09 (VHH)
VHH: B9 VHH with A24V, L27I, G66W, L86M, T123I
notes: as for B9
B31: VHH 60A06 (VHH)
VHH: B9 VHH with L27F, E44D, F106Y, L124V
notes: as for B9
B32: VHH 64F07 (VHH)
VHH: B9 VHH with E1Q, A24V, L27F, K76Q, P88S
notes: as for B9
B33: VHH 64G11 (VHH)
VHH: B9 VHH with L27I, E46V
notes: as for B9

In the first assay the target is T1, N-terminally FLAG-tagged mouse Ang2 (HEK293T conditioned medium) (mouse, UniProt O35608 19-496).
T1 construct: may be a nucleotide entry; also called mAng2; FLAG-mAng2
T1 sequence: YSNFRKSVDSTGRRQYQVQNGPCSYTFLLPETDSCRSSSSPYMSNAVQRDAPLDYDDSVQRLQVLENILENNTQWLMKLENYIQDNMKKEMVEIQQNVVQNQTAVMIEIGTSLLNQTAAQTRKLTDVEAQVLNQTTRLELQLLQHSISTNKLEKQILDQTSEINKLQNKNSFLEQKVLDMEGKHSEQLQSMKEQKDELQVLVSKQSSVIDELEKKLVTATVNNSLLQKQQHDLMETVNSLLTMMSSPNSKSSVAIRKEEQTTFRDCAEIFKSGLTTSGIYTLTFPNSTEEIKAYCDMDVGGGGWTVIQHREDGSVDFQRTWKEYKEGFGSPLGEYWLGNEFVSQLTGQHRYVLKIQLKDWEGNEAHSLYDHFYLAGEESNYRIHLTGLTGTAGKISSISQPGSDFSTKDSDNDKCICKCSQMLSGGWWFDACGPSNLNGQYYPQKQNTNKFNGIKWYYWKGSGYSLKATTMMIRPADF
The assay is described as follows: competition ELISA, FLAG-mAng2 on coated mTie2-Fc. As to the method: In brief, 2 μg/mL of recombinant mouse Tie2-Fc or cyno Tie2-Fc is coated overnight at 4° C. in a 96-well MaxiSorp plate (Nunc, Wiesbaden, Germany). Coated wells are blocked with a 1% casein solution.
Broadly, the IC50 is the concentration at which inhibition is half-maximal. Low values mean higher potency, high ones lower potency. For the molecule B1, the IC50 was 57.4 nM.
Take B2: the IC50 was 99.3 nM.
Molecule B3 registered a half-inhibitory concentration (IC50) of 19.4 nM.
Same read-out and setting: under B4 stands 7.7 nM.
Same read-out and setting: under B5 stands 32.7 nM.
Still for that read-out and setting: under B6 stands 45.2 nM; under B7, 6.7 nM.
In the case of B8, the IC50 is 143 nM.

In the next assay the target is T2, recombinant human Ang2-FLD (human, UniProt O15123 275-496, limits assumed).
T2 construct: domain: FLD; not used
T2 sequence (looked up): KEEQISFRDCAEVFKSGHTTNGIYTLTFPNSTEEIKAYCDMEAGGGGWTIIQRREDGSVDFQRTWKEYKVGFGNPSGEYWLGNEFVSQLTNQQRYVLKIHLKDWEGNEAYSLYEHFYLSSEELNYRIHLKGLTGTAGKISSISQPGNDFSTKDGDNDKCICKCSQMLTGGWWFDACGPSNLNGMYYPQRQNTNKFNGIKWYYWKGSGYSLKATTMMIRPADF
Description: ProteOn off-rate assay, periplasmic extract 1:10 over coated human Ang2-FLD. As to the method:
In a first cycle, amino acid substitutions are introduced randomly in both framework (FW) and complementary determining regions (CDR) using the error-prone PCR method. […] After a polish step, PCR products are inserted via unique restriction sites into a vector designed to facilitate phage display of the VHH library. […] Periplasmic extract of affinity matured clones is diluted 1:10 and injected across the “analyte channels” A1-A6.
By koff is commonly meant a measure of how fast the partners let go of each other. For the molecule B9, the “fold improvement (off-rate against VHH 00027)” value (from here on “fold improvement”) came out at 9.4 fold and the koff came to 0.00012 s⁻¹.
As to B10, the “fold improvement” value amounted to 8 fold and the koff is 0.00016 s⁻¹.
With B11, the “fold improvement” value came to 8.9 fold and the koff stood at 0.00014 s⁻¹.
As to B12, the “fold improvement” value is 8.3 fold and the koff was 0.00014 s⁻¹.
Take B13: the “fold improvement” value came out at 9.2 fold and the off-rate constant (koff) turned out to be 0.00013 s⁻¹.
For B14, in that order: 10.8 fold and 0.00011 s⁻¹.
Consider B15, for which the “fold improvement” value stood at 8.5 fold and the koff amounted to 0.00014 s⁻¹.
Take B16: the “fold improvement” value was determined as 8.1 fold and the koff turned out to be 0.00013 s⁻¹.
Taken in the same sequence, the figures for B17 were 8.9 fold and 0.00013 s⁻¹.
Taken in the same sequence, the figures for B18 were 8.2 fold and 0.00014 s⁻¹.
In the case of B19, the “fold improvement” value was 8.7 fold and the koff was 0.00013 s⁻¹.
In the case of B20, the “fold improvement” value worked out at 8.1 fold and the koff was 0.00015 s⁻¹.
For B21, in that order: 9.4 fold and 0.00012 s⁻¹.
For B22, in that order: 15.7 fold and 7.4e-05 s⁻¹.
Consider B23, for which the “fold improvement” value is 8.1 fold and the off-rate constant (koff) was 0.00016 s⁻¹.
Taken in the same sequence, the figures for B24 were 10.3 fold and 0.00011 s⁻¹.
Taken in the same sequence, the figures for B25 were 8.7 fold and 0.00014 s⁻¹.
For B26, in that order: 8 fold and 0.00015 s⁻¹.
Regarding B27, the “fold improvement” value was 9.2 fold and the dissociation rate constant (koff) was 0.00013 s⁻¹.
For B28, in that order: 8.3 fold and 0.00014 s⁻¹.
For B29, in that order: 8.2 fold and 0.00014 s⁻¹.
As to B30, the “fold improvement” value was 8.5 fold and the dissociation rate constant (koff) came out at 0.00016 s⁻¹.
As to B31, the “fold improvement” value came out at 8.3 fold and the koff turned out to be 0.00016 s⁻¹.
With B32, the “fold improvement” value turned out to be 9.4 fold and the off-rate (koff) was determined as 0.00012 s⁻¹.
Taken in the same sequence, the figures for B33 were 9.6 fold and 0.00012 s⁻¹.

Source of the values: patent US20230203146A1 (Boehringer Ingelheim, published 2023).
